Data reported in patent publication US20170355733A1.
Substitutions are numbered along the chain they refer to. Names and notes keep the numbering of the source.

B1: GB1#-Cont.1d (designed binder)
chain: GPLGSTTYKLILNGKTLTGYTTAIAADAATAEIVLKQFANDNGIDGEWTYDDATKTFTVTE
B2: GB1#-T17V.1d (designed binder)
chain: B1 chain with T22V
B3: GB1#-T17A.1d (designed binder)
chain: B1 chain with T22A
B4: GB1#-D36V.1d (designed binder)
chain: B1 chain with D41V

Legend:
[1] = biological target: aTNF-Fab (Fab fragment of anti-human TNFα monoclonal IgG, generic name Infliximab, product name Remicade); experiment: SPR Biacore 3000, aTNF-Fab amine-coupled on CM5, peptide flowed, 25 °C, pH 7.4, 1:1 fit
[2] = biological target: aTNF-Fab (Fab fragment of anti-human TNFα monoclonal IgG, generic name Infliximab, product name Remicade); experiment: affinity chromatography on aTNF-Fab-immobilized column, linear pH gradient 5.5 to 2.5, pH at elution peak top
[3] = biological target: aTNF-Fab (Fab fragment of anti-human TNFα monoclonal IgG, generic name Infliximab, product name Remicade); experiment: affinity constant KA for aTNF-Fab, summing up Table 2 (method not shown in the excerpt)

Binder	Ka [1] [M⁻¹]	koff [1] [s⁻¹]	kon [1] [M⁻¹ s⁻¹]	Dissociation pH [2] [pH]	Ka [3] [M⁻¹]
B1	2.45e+06	0.017	41700	2.6	
B2	570000	0.0335	19100	3	> 500000
B3	880000	0.0285	25000	2.85	> 500000
B4	510000	0.064	32800	3.4	> 500000
